Earlier results on 2 molecules are cited in US11937625B2, “Oral administration formulation of blueberry extract as a coadjuvant for preserving the health of human precorneal film” (CENTRO DE RETINA MEDICA Y QUIRURGICA, S.C., priority 2017, dated 2024).

For series [1] the following is noted: day 60; oral supplement; post-cataract surgery patients; control group 7.86 (±0.86) seconds.
For a further series, the system named is pepsin. The settings on record: in mice; Nojima et al (2008).

B1: lactoferrin (protein, UniProt P02788 20-710, looked up)
Lactotransferrin: GRRRSVQWCAVSQPEATKCFQWQRNMRKVRGPPVSCIKRDSPIQCIQAIAENRADAVTLDGGFIYEAGLAPYKLRPVAAEVYGTERQPRTHYYAVAVVKKGGSFQLNELQGLKSCHTGLRRTAGWNVPIGTLRPFLNWTGPPEPIEAAVARFFSASCVPGADKGQFPNLCRLCAGTGENKCAFSSQEPYFSYSGAFKCLRDGAGDVAFIRESTVFEDLSDEAERDEYELLCPDNTRKPVDKFKDCHLARVPSHAVVARSVNGKEDAIWNLLRQAQEKFGKDKSPKFQLFGSPSGQKDLLFKDSAIGFSRVPPRIDSGLYLGSGYFTAIQNLRKSEEEVAARRARVVWCAVGEQELRKCNQWSGLSEGSVTCSSASTTEDCIALVLKGEADAMSLDGGYVYTAGKCGLVPVLAENYKSQQSSDPDPNCVDRPVEGYLAVAVVRRSDTSLTWNSVKGKKSCHTAVDRTAGWNIPMGLLFNQTGSCKFDEYFSQSCAPGSDPRSNLCALCIGDEQGENKCVPNSNERYYGYTGAFRCLAENAGDVAFVKDVTVLQNTDGNNNEAWAKDLKLADFALLCLDGKRKPVTEARSCHLAMAPNHAVVSRMDKVERLKQVLLHQQAKFGRNGSDCPDKFCLFQSETKNLLFNDNTECLARLHGKTTYEKYLGPQYVAGITNLKKCSTSPLLEACEFLRK
Take B1: in series [1], the fluorescein break-up time was 13.9 (±0.99) seconds.

B2: mono-PEGylated lactoferrin: lactoferrin with covalent attachment of polyethylene glycol (PEG), synthesized by Nojima et al (2008) (conjugate, UniProt P02788 20-710, looked up)
Lactotransferrin: B1 Lactotransferrin
modifications: mono-PEGylated
In the case of B2, the “resistance to pepsin proteolysis” value in the series on pepsin is reported as “greater resistance”.
